How the values were obtained:
Experiment in all cases: cell-based or functional assay
[1] = target: Full length MmRXR (mouse Mus musculus RXRalpha) (Mus musculus) (UniProt P28700)
[2] = target: VP16CfUSPDEF (VP16 activation domain fused to the D, E and F domains of Choristoneura fumiferana USP) (Choristoneura fumiferana)
[3] = target: VP16MmRXRDEF (VP16 activation domain fused to the DEF domains of mouse RXR) (Mus musculus)
[4] = target: VP16CfEcRCDEF (VP16 activation domain fused to CfEcRCDEF) (Choristoneura fumiferana)
[5] = target: VP16DmEcRCDEF (VP16 activation domain fused to DmEcRCDEF) (Drosophila melanogaster)

Chain of Full length MmRXR (mouse Mus musculus RXRalpha) (Mus musculus) (P28700 whole entry, the tested form may be a part): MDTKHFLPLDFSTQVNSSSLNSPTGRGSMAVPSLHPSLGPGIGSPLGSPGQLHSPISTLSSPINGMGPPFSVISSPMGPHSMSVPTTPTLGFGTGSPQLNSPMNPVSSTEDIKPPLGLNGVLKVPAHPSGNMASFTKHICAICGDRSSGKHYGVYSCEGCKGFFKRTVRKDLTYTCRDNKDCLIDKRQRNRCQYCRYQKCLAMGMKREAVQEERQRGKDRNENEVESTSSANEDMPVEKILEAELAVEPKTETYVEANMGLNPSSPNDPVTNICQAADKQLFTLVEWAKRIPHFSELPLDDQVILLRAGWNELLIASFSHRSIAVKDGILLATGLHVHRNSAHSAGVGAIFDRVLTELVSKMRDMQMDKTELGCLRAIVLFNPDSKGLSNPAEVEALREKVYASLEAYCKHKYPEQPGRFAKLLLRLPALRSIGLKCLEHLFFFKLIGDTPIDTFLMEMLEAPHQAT

## CfVgRXR EcR component: truncated CfEcR comprising a partial A/B domain and the complete CDEF domains, fused to VP16AD
[1]
  Mean Fold Activation Through N-(2-ethyl-3-methoxybenzoyl)-N'-(3,5-dimethylbenzoyl)-N'-t-butylhydrazine; pIND(SP1)LacZ reporter, 3T3 cells (switch 1.9): 19 fold
  Mean Fold Activation Through N-(2-ethyl-3-methoxybenzoyl)-N'-(3,5-dimethylbenzoyl)-N'-t-butylhydrazine; pIND(SP1)LacZ reporter, 293 cells (switch 1.9): 12 fold
  Mean Fold Activation with 50 µM N-(2-ethyl-3-methoxybenzoyl)-N'-(3,5-dimethylbenzoyl)-N'-t-butylhydrazine; pIND(SP1)LacZ reporter, CHO cells (switch 1.9): 27 fold

## Drosophila melanogaster EcR with a modified DNABD fused to VP16AD (EcR component of the DmVgRXR system, Invitrogen)
[1]
  Mean Fold Activation Through N-(2-ethyl-3-methoxybenzoyl)-N'-(3,5-dimethylbenzoyl)-N'-t-butylhydrazine; pIND(SP1)LacZ reporter, 3T3 cells (switch 1.8): 21 fold
  Mean Fold Activation Through N-(2-ethyl-3-methoxybenzoyl)-N'-(3,5-dimethylbenzoyl)-N'-t-butylhydrazine; pIND(SP1)LacZ reporter, 293 cells (switch 1.8): 21 fold
  Mean Fold Activation with 50 µM N-(2-ethyl-3-methoxybenzoyl)-N'-(3,5-dimethylbenzoyl)-N'-t-butylhydrazine; pIND(SP1)LacZ reporter, CHO cells (switch 1.8): 14 fold

## GAL4CfEcRDEF (GAL4 DNA binding domain fused to the D, E and F domains of Choristoneura fumiferana EcR)
[2]
  Mean Fold Activation Through N-(2-ethyl-3-methoxybenzoyl)-N'-(3,5-dimethylbenzoyl)-N'-t-butylhydrazine; pGAL4RELuc reporter, 3T3 cells (switch 1.2): 2 fold
  Mean Fold Activation Through N-(2-ethyl-3-methoxybenzoyl)-N'-(3,5-dimethylbenzoyl)-N'-t-butylhydrazine; pGAL4RELuc reporter, 293 cells (switch 1.2): 2 fold
  Mean Fold Activation with 50 µM N-(2-ethyl-3-methoxybenzoyl)-N'-(3,5-dimethylbenzoyl)-N'-t-butylhydrazine; pGAL4RELuc reporter, CHO cells (switch 1.2): 2 fold
[3]
  Mean Fold Activation Through N-(2-ethyl-3-methoxybenzoyl)-N'-(3,5-dimethylbenzoyl)-N'-t-butylhydrazine; pGAL4RELuc reporter, 3T3 cells (switch 1.1): 1120 fold
  Mean Fold Activation Through N-(2-ethyl-3-methoxybenzoyl)-N'-(3,5-dimethylbenzoyl)-N'-t-butylhydrazine; pGAL4RELuc reporter, 293 cells (switch 1.1): 125 fold
  Mean Fold Activation with 50 µM N-(2-ethyl-3-methoxybenzoyl)-N'-(3,5-dimethylbenzoyl)-N'-t-butylhydrazine; pGAL4RELuc reporter, CHO cells (switch 1.1): 267 fold
  Mean Fold Induction at 1.0 µM Concentration of Muristerone A; reporter gene, 3T3 cells (switch 1.1): 1 fold
  Mean Fold Induction at 1.0 µM Concentration of N'-(3,4-(1,2-ethylenedioxy)-2-methylbenzoyl)-N'-(3,5-dimethylbenzoyl)-N'-tert-butylhydrazine; reporter gene, 3T3 cells (switch 1.1): 601 fold
  Mean Fold Induction at 1.0 µM Concentration of N-(2-ethyl-3-methoxybenzoyl)-N'-(3,5-dimethylbenzoyl)-N'-tert-butylhydrazine; reporter gene, 3T3 cells (switch 1.1): 116 fold
  Mean Fold Induction at 1.0 µM Concentration of Ponasterone A; reporter gene, 3T3 cells (switch 1.1): 1 fold

## GAL4CfUSPDEF (GAL4 DNA binding domain fused to CfUSPDEF)
[4]
  Mean Fold Activation Through N-(2-ethyl-3-methoxybenzoyl)-N'-(3,5-dimethylbenzoyl)-N'-t-butylhydrazine; pGAL4RELuc reporter, 3T3 cells (switch 1.5): 3 fold
  Mean Fold Activation Through N-(2-ethyl-3-methoxybenzoyl)-N'-(3,5-dimethylbenzoyl)-N'-t-butylhydrazine; pGAL4RELuc reporter, 293 cells (switch 1.5): 2 fold
  Mean Fold Activation with 50 µM N-(2-ethyl-3-methoxybenzoyl)-N'-(3,5-dimethylbenzoyl)-N'-t-butylhydrazine; pGAL4RELuc reporter, CHO cells (switch 1.5): 2 fold

## GAL4MmRXRDEF (GAL4 DNA binding domain fused to MmRXRDEF)
[5]
  Mean Fold Activation Through N-(2-ethyl-3-methoxybenzoyl)-N'-(3,5-dimethylbenzoyl)-N'-t-butylhydrazine; pGAL4RELuc reporter, 3T3 cells (switch 1.4): 269 fold
  Mean Fold Activation Through N-(2-ethyl-3-methoxybenzoyl)-N'-(3,5-dimethylbenzoyl)-N'-t-butylhydrazine; pGAL4RELuc reporter, 293 cells (switch 1.4): 3 fold
  Mean Fold Activation with 50 µM N-(2-ethyl-3-methoxybenzoyl)-N'-(3,5-dimethylbenzoyl)-N'-t-butylhydrazine; pGAL4RELuc reporter, CHO cells (switch 1.4): 312 fold
[4]
  Mean Fold Activation Through N-(2-ethyl-3-methoxybenzoyl)-N'-(3,5-dimethylbenzoyl)-N'-t-butylhydrazine; pGAL4RELuc reporter, 3T3 cells (switch 1.3): 47 fold
  Mean Fold Activation Through N-(2-ethyl-3-methoxybenzoyl)-N'-(3,5-dimethylbenzoyl)-N'-t-butylhydrazine; pGAL4RELuc reporter, 293 cells (switch 1.3): 17 fold
  Mean Fold Activation with 50 µM N-(2-ethyl-3-methoxybenzoyl)-N'-(3,5-dimethylbenzoyl)-N'-t-butylhydrazine; pGAL4RELuc reporter, CHO cells (switch 1.3): 85 fold
  Mean Fold Induction at 1.0 µM Concentration of Muristerone A; reporter gene, 3T3 cells (switch 1.3): 1 fold
  Mean Fold Induction at 1.0 µM Concentration of N'-(3,4-(1,2-ethylenedioxy)-2-methylbenzoyl)-N'-(3,5-dimethylbenzoyl)-N'-tert-butylhydrazine; reporter gene, 3T3 cells (switch 1.3): 54 fold
  Mean Fold Induction at 1.0 µM Concentration of N-(2-ethyl-3-methoxybenzoyl)-N'-(3,5-dimethylbenzoyl)-N'-tert-butylhydrazine; reporter gene, 3T3 cells (switch 1.3): 71 fold
  Mean Fold Induction at 1.0 µM Concentration of Ponasterone A; reporter gene, 3T3 cells (switch 1.3): 1 fold
